Laboratory results: patent US20130224224A1 (Boehringer Ingelheim, published 2013)
Read-outs that look alike come from different tables or passages of the source.

T1: human CX3CR1 (human, UniProt P49238 1-355)
T1 construct: overexpressed on CHO, BA/F3 or HEK293T cells; also called huCX3CR1; hCX3CR1
T1 sequence: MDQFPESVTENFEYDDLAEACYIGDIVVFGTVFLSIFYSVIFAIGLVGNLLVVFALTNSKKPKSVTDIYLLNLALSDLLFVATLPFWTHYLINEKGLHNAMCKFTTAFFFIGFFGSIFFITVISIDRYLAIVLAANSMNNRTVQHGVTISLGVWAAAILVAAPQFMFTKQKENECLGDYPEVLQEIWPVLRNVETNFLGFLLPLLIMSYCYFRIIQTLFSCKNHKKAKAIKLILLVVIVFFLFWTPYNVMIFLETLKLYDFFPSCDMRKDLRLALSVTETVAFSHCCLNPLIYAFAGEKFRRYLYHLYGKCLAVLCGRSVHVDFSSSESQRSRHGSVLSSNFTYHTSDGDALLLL

T2: cynomolgus CX3CR1 (cynomolgus, UniProt P49238 1-355 (human entry))
T2 construct: transiently expressed on HEK293T cells; also called cyCX3CR1; cyno CX3CR1
T2 chain: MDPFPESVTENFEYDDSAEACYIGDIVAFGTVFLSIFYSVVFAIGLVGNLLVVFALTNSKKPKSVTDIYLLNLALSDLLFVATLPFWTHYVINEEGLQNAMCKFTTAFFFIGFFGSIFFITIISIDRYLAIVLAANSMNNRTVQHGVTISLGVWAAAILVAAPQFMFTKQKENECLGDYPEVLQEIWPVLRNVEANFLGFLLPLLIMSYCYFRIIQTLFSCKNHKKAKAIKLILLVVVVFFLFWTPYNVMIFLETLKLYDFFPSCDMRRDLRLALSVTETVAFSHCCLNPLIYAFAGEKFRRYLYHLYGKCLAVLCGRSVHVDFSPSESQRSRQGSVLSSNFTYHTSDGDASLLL


What was measured:
[1] = target: T1, human CX3CR1; assay: A647-fractalkine competition FACS, BA/F3-huCX3CR1
[2] = target: T1, human CX3CR1; assay: cell-based or functional assay
[3] = target: T1, human CX3CR1; assay: A647-fractalkine competition FACS, BA/F3-huCX3CR1; remark: listed apart in the source
[4] = target: T1, human CX3CR1; assay: cell-based or functional assay; remark: listed apart in the source
[5] = target: T1, human CX3CR1; assay: FACS binding, HEK293T human CX3CR1
[6] = target: T2, cynomolgus CX3CR1; assay: FACS binding, HEK293T cynomolgus CX3CR1
[7] = target: T1, human CX3CR1; assay: A647-fractalkine competition FACS, CHO-huCX3CR1
Description: Periplasmic extracts were screened in a human CX3CR1/human Fractalkine FACS competition assay to assess the blocking capacity of the expressed VHHs. Human CX3CR1 was presented on CHO cells overexpressing CX3CR1. Both a setup using cells harvested from an actively growing culture and a setup using frozen cells was used. As a detection reagent labeled fractalkine was used (R&D Systems, Minneapolis, Minn., USA) labeled with alexa647 (A647-Fractalkine) at a degree of labeling of 1. To setup the assay, first a titration series of the labeled fractalkine was performed on the CHO-huCX3CR1 cells in order to determine the EC50 value for binding. Initially screening was performed at a higher concentration of fractalkine (3 nM) to increase the assay robustness. To increase the sensitivity of the screening to a maximum, the EC30 concentration (1 nM) was chosen for subsequent screening. In brief 50 μl of periplasmic extract was added to 6 nM labeled fractalkine (50 μ;) and 200 000 CHO-huCX3CR1 cells. After one hour incubation at 4 C, cells were washed three times before read out was performed on a FACS Array (Becton Dickinson). First a gate was set on the intact cells as determined from the scatter profile. Next, dead cells were gated out by their fluorescence profile from the PI stain (Sigma, St Louis, US). The fluorescence profile from the alexa647 label was determined for each sample and used for calculation of blocking capacity. As controls, conditions were taken along where there was no VHH present in the peri extract or a known irrelevant VHH and samples were included where excess cold fractalkine was included. For each sample the percentage block was determined using the control samples to determine the assay window.
The inhibition of ligand binding to human CX3CR1 was investigated for the different formats as described in Example 4. For this characterization the BA/F3-huCX3CR1 cell line was used showing stable expression of the human CX3CR1 receptor. The alexa647 labeled ligand fractalkine was used at its EC30 concentration and thereby obtained IC50 values are reflective of the Ki values.

[8] = target: T2, cynomolgus CX3CR1; assay: FACS binding, cynomolgus against human CX3CR1
[9] = target: T1, human CX3CR1; assay: A647-fractalkine competition FACS, BA/F3-huCX3CR1; remark: listed apart in the source
[10] = target: T1, human CX3CR1; assay: cell-based or functional assay; remark: listed apart in the source

Row | IC50 [3] [nM] | % block, fractalkine induced chemotaxis [4] [%] | IC50, fractalkine induced chemotaxis [4] [nM] | IC50 [9] [nM] | IC50, Calcium influx [10] [nM] | IC50, Chemotaxis [10] [nM] | IC50, Ligand internalization [10] [nM] | Binder | further results
1 | 0.67 | 98 | 0.9 |  |  |  |  | CX3CR1BII027 (VHH, expressed in E. coli as described for the monovalent VHHs) EVQLVESGGGLVQAGGSLRLSCVASGRTFSSYAMGWFRQAPGKERAFVAGISGSASRKYYADSVKGRFTVSRDNARNTVYLQMNSLKPEDTAVYYCAASNSYPKVQFDYYGQGTQVTVSSGGGGSGGGGSGGGGSGGGGSGGGGSGGGGSGGGGSEVQLVESGGGSVQAGESLRLSCAASGSIFSSNAMAWYRQAPGKQRDLVAGINSVGITKYADSVKGRFTISRDNAKNTAYLQMNSLKPEDTAVYYCTSDPRRGWDTRYWGQGTLVTVSS | 
2 |  | 78 | 4 |  |  |  |  | CX3CR1BII012 (VHH, expressed in E. coli as described for the monovalent VHHs) EVQLVESGGGSVQAGGSLRLSCAASGSIFSSNAMAWYRQAPGKQRDLVAGINSVGITKYADSVKGRFTISRDNAKNTVYLQMNSLKPEDTAVYYCTSDPRRGWDTRYWGQGTLVTVSSGGGGSGGGGSGGGGSGGGGSGGGGSGGGGSGGGGSKVQLVESGGGLVQPGGSLRLSCATSGTIFSNNAMGWYRQAPGKKRDLVASISSSGSTNYADSVKGRFTVSRDNDKNTGYLQMNSLKPEDTGVYYCTLDARRGWNTAYWGQGAQVTVSS | EC50 [5]: 0.056 nM; EC50 [6]: 0.063 nM; % block [7]: 93%; IC50 [7]: 0.8 nM; ratio (cynomolgus/human EC50) [8]: 1.1
3 |  |  |  | 0.7 | 3.2 | 3 | 0.37 | 307D-hFc (Fc fusion, CX3CR1BII00307 fused to a human IgG1 Fc domain with two mutations in CH2; expressed in HEK293T or NS0 cells) DVQLVESGGGLVQPGGSLRLSCAASGSIFSSTAMAWYRQAPGKRRDLVAAISTVGVTKYADSVKGRFTISRDNSKNTVYLQMNSLRPEDTAVYYCTSDPRRGWDTRYWGQGTLVTVSSGGGGSGGGGSGGGGSCPPCPAPEAAGGPSVFLFPPKPKDTLMISRTPEVTCVVVDVSHEDPEVKFNWYVDGVEVHNAKTKPREEQYNSTYRVVSVLTVLHQDWLNGKEYKCKVSNKALPAPIEKTISKAKGQPREPQVYTLPPSREEMTKNQVSLTCLVKGFYPSDIAVEWESNGQPENNYKTTPPVLDSDGSFFLYSKLTVDKSRWQQGNVFSCSVMHEALHNHYTQKSLSLSPGK | 

More lines, now with the values behind:

Row | Binder | IC50 [3] [nM] | % block, fractalkine induced chemotaxis [4] [%] | IC50, fractalkine induced chemotaxis [4] [nM] | IC50 [9] [nM] | IC50, Calcium influx [10] [nM] | IC50, Chemotaxis [10] [nM] | IC50, Ligand internalization [10] [nM] | further results
4 | 66B02-mFc (Fc fusion, 66B02 VHH fused to a mouse IgG2 Fc domain with D265A in CH2; expressed in HEK293T or NS0 cells; dimer form is told only as an aspect) EVQLVESGGGSVQAGESLRLSCAASGSIFSSNAMAWYRQAPGKRRDLVAAINSVGVTKYADSVKGRFTISRDNAKNTVYLQMNSLKPEDTAVYYCTSDPRRGWDTRYWGQGTLVTVSSGGGGSGGGGSGGGGSPPCKCPAPNLLGGPSVFIFPPKIKDVLMISLSPIVTCVVVAVSEDDPDVQISWFVNNVEVHTAQTQTHREDYNSTLRVVSALPIQHQDWMSGKEFKCKVNNKDLPAPIERTISKPKGSVRAPQVYVLPPPEEEMTKKQVTLTCMVTDFMPEDIYVEWTNNGKTELNYKNTEPVLDSDGSYFMYSKLRVEKKNWVERNSYSCSVVHEGLHNHHTTKSFSRTPGK |  |  |  |  |  |  |  | IC50 [1]: 0.57 nM; IC50, Calcium influx [2]: 0.98 nM; IC50, Chemotaxis [2]: 0.89 nM; IC50, Ligand internalization [2]: 0.52 nM
5 | CX3CR1BII026 (VHH, expressed in E. coli as described for the monovalent VHHs) EVQLVESGGGLVQAGGSLRLSCVASGRTFSSYAMGWFRQAPGKERAFVAGISGSASRKYYADSVKGRFTVSRDNARNTVYLQMNSLKPEDTAVYYCAASNSYPKVQFDYYGQGTQVTVSSGGGGSGGGGSGGGGSGGGGSGGGGSGGGGSGGGGSEVQLVESGGGSVQAGESLRLSCAASGSIFSSNAMAWYRQAPGKRRDLVAAINSVGVTKYADSVKGRFTISRDNAKNTVYLQMNSLKPEDTAVYYCTSDPRRGWDTRYWGQGTQVTVSS | 0.7 | 98 | 0.3 |  |  |  |  | 
6 | 306D-hFc (Fc fusion, CX3CR1BII00306 fused to a human IgG1 Fc domain with two mutations in CH2; expressed in HEK293T or NS0 cells) DVQLVESGGGLVQPGGSLRLSCAASGSIFSSTAMAWYRQAPGKRRDLVAAISSVGVTKYADSVKGRFTISRDNSKNTVYLQMNSLRPEDTAVYYCTSDPRRGWDTRYWGQGTLVTVSSGGGGSGGGGSGGGGSCPPCPAPEAAGGPSVFLFPPKPKDTLMISRTPEVTCVVVDVSHEDPEVKFNWYVDGVEVHNAKTKPREEQYNSTYRVVSVLTVLHQDWLNGKEYKCKVSNKALPAPIEKTISKAKGQPREPQVYTLPPSREEMTKNQVSLTCLVKGFYPSDIAVEWESNGQPENNYKTTPPVLDSDGSFFLYSKLTVDKSRWQQGNVFSCSVMHEALHNHYTQKSLSLSPGK |  |  |  | 0.69 | 1.3 | 2.9 | 0.48 | 
